1 molecule from publication PMC11594477 can be followed below.

The target of this assay is human Flag-tagged RAC2 T108A mutant (human), P15153. The assay can be described thus: co-IP; Caki-1 cells transfected with Flag-tagged WT, S86A or T108A RAC2; interaction with NEDD4L quantified relative to WT. Particulars: remark: other sources report otherwise.

B1: Neural precursor cell expressed developmentally down-regulated 4-like (NEDD4L), endogenous, Q96PU5-5 1-955 (enzyme)
chain: MATGLGEPVYGLSEDEGESRILRVKVVSGIDLAKKDIFGASDPYVKLSLYVADENRELALVQTKTIKKTLNPKWNEEFYFRVNPSNHRLLFEVFDENRLTRDDFLGQVDVPLSHLPTEDPTMERPYTFKDFLLRPRSHKSRVKGFLRLKMAYMPKNGGQDEENSDQRDDMEHGWEVVDSNDSASQHQEELPPPPLPPGWEEKVDNLGRTYYVNHNNRTTQWHRPSLMDVSSESDNNIRQINQEAAHRRFRSRRHISEDLEPEPSEGGDVPEPWETISEEVNIAGDSLGLALPPPPASPGSRTSPQELSEELSRRLQITPDSNGEQFSSLIQREPSSRLRSCSVTDAVAEQGHLPPPSVAYVHTTPGLPSGWEERKDAKGRTYYVNHNNRTTTWTRPIMQLAEDGASGSATNSNNHLIEPQIRRPRSLSSPTVTLSAPLEGAKDSPVRRAVKDTLSNPQSPQPSPYNSPKPQHKVTQSFLPPGWEMRIAPNGRPFFIDHNTKTTTWEDPRLKFPVHMRSKTSLNPNDLGPLPPGWEERIHLDGRTFYIDHNSKITQWEDPRLQNPAITGPAVPYSREFKQKYDYFRKKLKKPADIPNRFEMKLHRNNIFEESYRRIMSVKRPDVLKARLWIEFESEKGLDYGGVAREWFFLLSKEMFNPYYGLFEYSATDNYTLQINPNSGLCNEDHLSYFTFIGRVAGLAVFHGKLLDGFFIRPFYKMMLGKQITLNDMESVDSEYYNSLKWILENDPTELDLMFCIDEENFGQTYQVDLKPNGSEIMVTNENKREYIDLVIQWRFVNRVQKQMNAFLEGFTELLPIDLIKIFDENELELLMCGLGDVDVNDWRQHSIYKNGYCPNHPVIQWFWKAVLLMDAEKRIRLLQFVTGTSRVPMNGFAELYGSNGPQLFTIEQWGSPEKLPRAHTCFNRLDLPPYETFEDLREKLLMAVENAQGFEGVD
For the molecule B1, the interaction, percent of the WT level (% of the WT level) came to 20.
